# Positions count from the first letter of the chain named.
# How the values were obtained:
# [1] = test system: T1, 4SCSC7_4AAAA7 precursor peptide
# T1 sequence: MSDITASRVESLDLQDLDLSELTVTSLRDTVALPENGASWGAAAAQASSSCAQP
# [2] = test system: T2, S10A mutant precursor peptide of LazA*
# T2 sequence: T1 sequence with A42S, A43C, A44S, A45C, S48A
# [3] = test system: T3, S12A mutant precursor peptide of LazA*
# T3 sequence: T1 sequence with A42S, A43C, A44S, A45C, S50A
# [4] = test system: T4, C13A mutant precursor peptide of LazA*
# T4 sequence: T1 sequence with A42S, A43C, A44S, A45C, C51A
# [5] = test system: T5, S11A mutant precursor peptide of LazA*
# T5 sequence: T1 sequence with A42S, A43C, A44S, A45C, S49A
substance,measurement,setting,value
"LazC (macrocyclase of lactazole biosynthesis, His-Tag-bound recombinant protein)",leader peptide elimination (LC-MS chromatogram of the leader peptide cleaved off through LazC reaction),[1],Leader peptide elimination was also seen in the 4SCSC7_4AAAA7 precursor peptide at a level equivalent to LazA*
same,leader peptide cleaved off through LazC reaction (LC-MS chromatogram),[2],Ser (10) and Cys (13) are also relatively important
same,leader peptide cleaved off through LazC reaction (LC-MS chromatogram),[3],such a leader peptide was hardly seen in S11A and S12A
same,leader peptide cleaved off through LazC reaction (LC-MS chromatogram),[4],A leader peptide cleaved off was slightly seen in S11A and C13A
same,leader peptide cleaved off through LazC reaction (LC-MS chromatogram),[5],such a leader peptide was hardly seen in S11A and S12A
